# Literature values in publication PMC9796269 (British Journal of Clinical Pharmacology, 2022).
substance,measurement,value
"CNP‐22: endogenous C‐type natriuretic peptide form, susceptible to Neprilysin degradation",calculated half‐life (clearance in human plasma),2.6 min
